Patent publication US20080070838A1, “Growth Factor Treatment for Asthma” (University of Southampton, priority 2004, published 2008)
Entries after “also recorded” stand apart in the source; their conditions may differ.

Experiments:
[1] = system: primary bronchial epithelial cells from asthmatic subjects; experiment: Proliferation assay (methylene blue), primary bronchial epithelial cell cultures from asthmatic subjects; format: cell-based, human; conditions: 1.7 nM EGF for 24 hours vs serum free medium, FIG. 2b
From the text: (§1) Bronchial brushings were taken from non-atopic, non-asthmatic control subjects and asthmatic subjects. Volunteers were characterised according to symptoms, pulmonary function and medication. Assessment of asthma severity was in accordance with the GINA guidelines on the diagnosis and management of asthma (Bousquet (2000) Global initiative for asthma (GINA) and its objectives.
(§2) Bronchial brushings were obtained by bronchoscopy using a fibreoptic bronchoscope (Olympus FB-20D, Tokyo, Japan) in accordance with standard published guidelines (Hurd S. Z. (1991) J. Allergy Clin. Immunol. 88, 808-814). Bronchial epithelial cells were obtained using a standard sterile single-sheathed nylon cytology brush (Olympus BC 9C-26101; Tokyo, Japan). […] Epithelial cell purity was assessed by performing differential cell counts on cytospins of the harvested cell suspension. […]
(§3) Cells were prepared in 24 well trays at a seeding density of a minimum of 4×10^4 cells/ml primary BECs. […] Absorbance of the eluant was determined using a Multiskan ascent plate reader after a 1:10 dilution with 1:1 ethanol:0.1% HCl to provide an absorbance within the linear range of the plate reader. Absorbance was read using a 630 nm filter and each sample was tested in duplicate. A standard curve was generated by direct cell counting to enable cell number to be related to methylene blue readings. […]

[2] = system: primary bronchial epithelial cells from normal subjects; experiment: Proliferation assay (methylene blue), primary bronchial epithelial cell cultures from normal controls; format: cell-based, human; conditions: 1.7 nM EGF for 24 hours vs serum free medium, FIG. 2a
From the text: as §1, §2, §3

B1: EGF: epithelial growth factor; wild-type mouse EGF produced in Pischia pastoris (protein)
chain: WQTGNCQPGPLERSERSGTCAGPAPFLVFSQGKSISRIDPDGTNHQQLVVDAGISADMDIHYKKERLYWVDVERQVLLRVFLNGTGLEKVCNVERKVSGLAIDWIDDEVLWVDQQNGVITVTDMTGKNSRVLLSSLKHPSNIAVDPIERLMFWSSEVTGSLHRAHLKGVDVKTLLETGGISVLTLDVLDKRLFWVQDSGEGSHAYIHSCDYEGGSVRLIRHQARHSLSSMAFFGDRIFYSVLKSKAIWIANKHTGKDTVRINLHPSFVTPGKLMVVHPRAQPRTEDAAKDPDPELLKQRGRPCRFGLCERDPKSHSSACAEGYTLSRDRKYCEDVNECATQNHGCTLGCENTPGSYHCTCPTGFVLLPDGKQCHELVSCPGNVSKCSHGCVLTSDGPRCICPAGSVLGRDGKTCTGCSSPDNGGCSQICLPLRPGSWECDCFPGYDLQSDRKSCAASGPQPLLLFANSQDIRHMHFDGTDYKVLLSRQMGMVFALDYDPVESKIYFAQTALKWIERANMDGSQRERLITEGVDTLEGLALDWIGRRIYWTDSGKSVVGGSDLSGKHHRIIIQERISRPRGIAVHPRARRLFWTDVGMSPRIESASLQGSDRVLIASSNLLEPSGITIDYLTDTLYWCDTKRSVIEMANLDGSKRRRLIQNDVGHPFSLAVFEDHLWVSDWAIPSVIRVNKRTGQNRVRLQGSMLKPSSLVVVHPLAKPGADPCLYRNGGCEHICQESLGTARCLCREGFVKAWDGKMCLPQDYPILSGENADLSKEVTSLSNSTQAEVPDDDGTESSTLVAEIMVSGMNYEDDCGPGGCGSHARCVSDGETAECQCLKGFARDGNLCSDIDECVLARSDCPSTSSRCINTEGGYVCRCSEGYEGDGISCFDIDECQRGAHNCGENAACTNTEGGYNCTCAGRPSSPGLSCPDSTAPSLLGEDGHHLDRNSYPGCPSSYDGYCLNGGVCMHIESLDSYTCNCVIGYSGDRCQTRDLRWWELRHAGYGQKHDIMVVAVCMVALVLLLVLGMWGTYYYRTRKQLSNPPKNPCDEPSGSVSSSGPNSSSGAAVASCPQPWFVVLEKHQDPKNGSLPADGTNGAVVDAGLSPSLQLGSVHLTSWRQKPHIDGMGTGQSCWIPPSSDRGPQEIEGNSHLPSYRPVGPEKLHSLQSANGSCHERAPDLPRQTEPVQ
[1]
  effect on cell number (proliferation): small but significant increase in cell number; also recorded: require exogenous EGF for maximal proliferation
[2]
  effect on cell number (proliferation): no effect on cell number; also recorded: unaffected
